Earlier results as cited in PMC4317059.

Columns and labels:
Asp143 = Asp143 (UniProt position 144, GNAGSDLACGV); test: kinetics
Glu143 = Glu143 (UniProt position 144, GNAGSELACGV); test: kinetics

Cu,Zn superoxide dismutase (SOD1) Arg143Asp mutant (Homo sapiens; R143D)
pKa (Asp143): ca. 6.2

Cu,Zn superoxide dismutase (SOD1) Arg143Glu mutant (Homo sapiens; R143E)
pKa (Glu143): ca. 6.2
